Target: DnaE1 (replicative DNA polymerase);β-clamp (Mycobacterium …, UniProt P9WNT7;P9WNU1 1-1184;1-402, |)
Experiment: cryo-EM 2D class average
Conditions: protein: recombinant;recombinant; tags: His tag cleaved with HRV 3C protease;; copies: 1;2

DnaE1 (replicative DNA polymerase);β-clamp, sequence (P9WNT7 whole entry, chain 1 of 2): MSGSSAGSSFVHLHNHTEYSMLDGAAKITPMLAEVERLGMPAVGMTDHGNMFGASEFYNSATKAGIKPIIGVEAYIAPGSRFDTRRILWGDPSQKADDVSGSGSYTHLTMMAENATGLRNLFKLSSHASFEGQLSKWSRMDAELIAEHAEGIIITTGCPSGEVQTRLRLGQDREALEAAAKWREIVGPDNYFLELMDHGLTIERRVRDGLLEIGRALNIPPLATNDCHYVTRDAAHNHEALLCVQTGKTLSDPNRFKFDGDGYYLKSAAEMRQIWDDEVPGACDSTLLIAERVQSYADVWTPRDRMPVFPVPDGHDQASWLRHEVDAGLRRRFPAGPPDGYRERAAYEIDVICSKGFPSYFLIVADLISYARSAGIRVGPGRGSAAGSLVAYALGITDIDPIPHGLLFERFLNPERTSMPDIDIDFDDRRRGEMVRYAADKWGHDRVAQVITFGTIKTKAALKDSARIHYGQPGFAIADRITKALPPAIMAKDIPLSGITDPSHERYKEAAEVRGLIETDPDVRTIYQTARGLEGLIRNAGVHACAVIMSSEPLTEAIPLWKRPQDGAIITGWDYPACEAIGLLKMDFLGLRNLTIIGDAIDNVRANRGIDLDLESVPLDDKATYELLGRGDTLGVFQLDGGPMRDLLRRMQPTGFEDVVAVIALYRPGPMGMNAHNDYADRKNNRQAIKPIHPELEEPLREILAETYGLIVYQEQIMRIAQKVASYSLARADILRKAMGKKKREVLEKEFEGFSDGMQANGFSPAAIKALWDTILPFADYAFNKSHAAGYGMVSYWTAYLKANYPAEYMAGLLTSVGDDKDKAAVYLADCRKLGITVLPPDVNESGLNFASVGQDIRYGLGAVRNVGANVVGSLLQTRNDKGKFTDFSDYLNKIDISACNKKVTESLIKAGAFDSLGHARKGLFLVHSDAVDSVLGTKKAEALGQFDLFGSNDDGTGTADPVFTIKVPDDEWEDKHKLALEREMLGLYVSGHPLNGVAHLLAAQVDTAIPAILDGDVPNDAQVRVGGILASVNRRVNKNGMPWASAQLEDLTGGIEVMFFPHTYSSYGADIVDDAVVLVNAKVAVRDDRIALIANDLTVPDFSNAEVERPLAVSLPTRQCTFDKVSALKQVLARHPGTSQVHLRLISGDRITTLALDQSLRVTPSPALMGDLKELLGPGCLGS
DnaE1 (replicative DNA polymerase);β-clamp, sequence (P9WNU1 whole entry, chain 2 of 2): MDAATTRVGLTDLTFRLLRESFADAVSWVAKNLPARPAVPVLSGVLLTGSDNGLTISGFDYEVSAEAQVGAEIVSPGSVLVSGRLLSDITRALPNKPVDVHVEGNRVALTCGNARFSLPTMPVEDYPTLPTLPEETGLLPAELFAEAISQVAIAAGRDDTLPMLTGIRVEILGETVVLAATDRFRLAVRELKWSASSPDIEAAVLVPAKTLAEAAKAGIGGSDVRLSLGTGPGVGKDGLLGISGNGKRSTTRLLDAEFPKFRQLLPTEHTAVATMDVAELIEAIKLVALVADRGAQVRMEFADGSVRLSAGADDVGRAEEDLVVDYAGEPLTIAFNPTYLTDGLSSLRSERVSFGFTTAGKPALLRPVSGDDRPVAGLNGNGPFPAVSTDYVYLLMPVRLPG

B1: mismatched primer-template cryo-EM substrate (dsDNA)
DNA 1: CCCCTCAGGAGTCCTTCGTCCTAGTACTACTCC
DNA 2: GGAGTAGTACTAGGACGAAGGACGT
modifications: phosphorothioate between last two nt of primer (GsT)
binding result: binds

— PMC5636811, “High-fidelity DNA replication in Mycobacterium tuberculosis relies on a trinuclear zinc center”
